Test results reported in article PMC8423902.

Target: trimeric SARS-CoV-2 ectodomain (S 6P trimer, residues 16-1206) (SARS-CoV-2) (UniProt P0DTC2)
Assay: cryo-EM structure

Substance: trimeric SARS-CoV-2 ectodomain (S 6P trimer, residues 16-1206) (from UniProt P0DTC2 16-1206)
- stoichiometry N: 3
